Data reported in article PMC11299580, “Discovery of novel disease-causing mutation in SSBP1 and its correction using adenine base editor to improve mitochondrial function” (Molecular Therapy. Nucleic Acids, 2023).

T1: SSBP1 wild-type (Homo sapiens, UniProt Q04837 17-148)
T1 sequence: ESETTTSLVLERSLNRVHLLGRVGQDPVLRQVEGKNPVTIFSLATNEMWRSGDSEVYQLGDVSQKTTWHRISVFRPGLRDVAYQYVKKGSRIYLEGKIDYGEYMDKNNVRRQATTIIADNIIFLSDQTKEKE

B1: single-stranded DNA-binding protein 1 (SSBP1), wild-type recombinant protein (natural protein, human, UniProt Q04837 17-148, looked up)
chain: T1 sequence
notes: A human SSBP1 cDNA clone (Origene RC215106) is named only for expression in mammalian cells; also called wild-type SSBP1; source: E. coli BL21 (DE3), purified (HiTrap IMAC, dialysis, Superdex 200 SEC)

What was measured:
[1] = target: the molecule itself; assay: cross-linking; glutaraldehyde cross-linking of recombinant SSBP1 proteins, SDS-PAGE with Coomassie staining and SSBP1 immunoblot, band intensities quantified with ImageJ (n = 3)
SSBP1 wild-type = target: T1, SSBP1 wild-type; assay: EMSA; probe 0.25 uM (far above Kd); legend gives protein 0-2 nM, main text figure 1 uM; units doubtful; 50 mM Tris pH 7.5, 150 mM NaCl, 10% glycerol, 30 min at room temperature; 2% agarose gel in 1x TBE; conditions: protein: recombinant; tags: IMAC tag (probably His); chain copies: 4

Binder | binding result [1] | Kd (SSBP1 wild-type) [nM]
B1 | binds | 
GGACTATTTATTCAATATATTTAAGAACTAATTCCAGCTGAGCGCCGG (ssDNA) [EMSA ssDNA probe] |  | 11.2 ± 0.89
